Assay results from patent US7192728B2, “Screening assays for agents that alter inhibitor of apoptosis (IAP) protein regulation of caspase activity” (The Burnham Institute, priority 1997, dated 2007).
Entries after “also recorded” stand apart in the source; their conditions may differ. Where a SMILES comes first, the peptide text is derived from it. The star is where a group is joined. Cbz = O=C(OCc1ccccc1)*; CH2F = FC*

T1: caspase-3 (Homo sapiens, UniProt P42574)
T1 construct: to produce the 17–20 kDa mature, fully processed large subunit of the active caspase-3 enzyme; a smaller, fully processed, subunit of about 11 kDa; His6; made in house; host or cells: E. coli BL21(DE3)pLysS
T1 sequence (P42574 29-175 limits assumed): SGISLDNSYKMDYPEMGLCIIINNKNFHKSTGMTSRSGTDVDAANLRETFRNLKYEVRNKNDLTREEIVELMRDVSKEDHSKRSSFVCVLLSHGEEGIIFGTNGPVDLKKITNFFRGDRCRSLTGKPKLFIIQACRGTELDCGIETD
T1 sequence (P42574 176-277 limits assumed): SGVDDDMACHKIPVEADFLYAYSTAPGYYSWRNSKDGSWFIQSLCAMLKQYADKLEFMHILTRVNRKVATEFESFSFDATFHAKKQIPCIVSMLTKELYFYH

T2: caspase-7 (Homo sapiens, UniProt P55210)
T2 construct: Purified active caspase concentrations ranged from 0.1 nM to 10 nM; His6; made in house; host or cells: E. coli BL21(DE3)pLysS
T2 sequence (P55210 24-198 limits assumed): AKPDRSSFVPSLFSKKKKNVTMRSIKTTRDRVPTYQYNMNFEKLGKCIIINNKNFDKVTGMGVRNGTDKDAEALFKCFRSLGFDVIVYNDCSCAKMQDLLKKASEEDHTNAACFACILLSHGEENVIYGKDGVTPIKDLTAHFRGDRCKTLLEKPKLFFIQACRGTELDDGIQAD
T2 sequence (P55210 207-303 limits assumed): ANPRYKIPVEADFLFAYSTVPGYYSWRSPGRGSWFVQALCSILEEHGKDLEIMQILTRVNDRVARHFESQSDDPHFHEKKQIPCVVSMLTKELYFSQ

T3: caspase-6 (Homo sapiens, UniProt P55212)
T3 construct: Purified active caspase concentrations ranged from 0.1 nM to 10 nM; His6; made in house; host or cells: E. coli BL21(DE3)pLysS
T3 sequence (P55212 24-179 limits assumed): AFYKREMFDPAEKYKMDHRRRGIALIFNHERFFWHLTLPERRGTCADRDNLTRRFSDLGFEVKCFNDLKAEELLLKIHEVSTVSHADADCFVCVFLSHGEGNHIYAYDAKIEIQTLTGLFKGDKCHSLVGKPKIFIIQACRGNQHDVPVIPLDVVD
T3 sequence (P55212 194-293 limits assumed): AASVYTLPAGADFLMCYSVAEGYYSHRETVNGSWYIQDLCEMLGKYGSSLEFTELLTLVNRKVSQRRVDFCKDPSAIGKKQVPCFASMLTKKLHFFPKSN


Experiments:
293T cells = test: Bax-induced apoptosis and caspase activation in transfected 293T cells; format: cell-based, human; conditions: 24 hr; Bax alone about 25%; zVAD-fmk 50 μM
Description: N-benzyloxycarbonyl-Val-Ala-Asp fluoromethylketone (zVAD-fmk; 50 μM) (Bachem Calif.; Torrance, Calif.) was added immediately after transfection of the Bax plasmid. Transfection efficiency was uniformly 80–90%, as determined by X-Gal staining following cotransfection with pCMV-βGal.
Cells were maintained in culture for 24 hr, then floating and attached cells were harvested and an aliquot was removed and the percent of dead cells was determined by either trypan blue or propidium iodide (PI) dye exclusion assay. A second aliquot was used to assess the percentage of apoptotic cells with subdiploid DNA content by FACS analysis of PI stained, ethanol fixed cells. The remaining cell pellets were lysed in 10 mM HEPES (pH 7.5), 142 mM KCl, 1 mM EGTA, 1 mM DTT, 0.2% NP-40, 0.1 mM PMSF and used for immunoblot analysis or for protease assays.

[1] = tested on: HeLa cell nuclei in cytosolic extract; test: Apoptosis of isolated nuclei in cell-free system (cytochrome c/dATP); conditions: 0.4 μM protein with 10 μM cytochrome c and 1 mM dATP; 37° C., 60 min; baseline about 15%, cytochrome c/dATP alone >95%
Description: (§1) Cells were washed with ice cold buffer A (20 mM Hepes (pH 7.5), 10 mM KCl, 1.5 mM MgCl2, 1 mM EDTA, 1 mM DTT and 0.1 mM PMSF) and suspended in 1 vol buffer A, then incubated on ice for 20 min. 293 cells were disrupted by passage 15× through a 26 gauge needle and Jurkat T cells were disrupted by dounce homogenization in 2 ml using 15 strokes with a pestle B. Cell extracts (10–15 mg total protein/ml) were clarified by centrifugation at 16,000×g for 30 min, then the NaCl concentration was increased by 50 mM. Cytosolic fractions were used immediately or stored frozen at −80° C.
Isolated nuclei were prepared from HeLa cells (Martin et al., supra, 1995). Approximately 5×10^4 to 1×10^5 nuclei were added to 20 μl cytosolic extract and apoptosis was initiated by adding 10 μM horse heart cytochrome c (Sigma, Inc.; St. Louis Mo.) and 1 mM dATP, alone (positive control) or with cytochrome c, dATP and either 0.4 μM GST-XIAP or 0.4 μM GST-Bcl-2. Following incubation at 37° C. for 60 min., nuclei were stained with 1 μg/ml of acridine orange and ethidium bromide and the percentage nuclei with apoptotic features, including extremely condensed chromatin and the genesis of fragmentation of nuclei, was determined.

[2] = tested on: DEVD-pNA hydrolysis activity in 293 cell cytosolic extracts; test: Cytochrome c/dATP-induced caspase activation (DEVD hydrolysis) in 293 cell cytosolic extracts; format: biochemical, human; conditions: 293 extracts + cytochrome c/dATP; GST-XIAP 0.2 μM, GST controls 2 μM, His6-S5a 5 μM; untreated ≈0.01
Description: as §1
(§2) Caspase activity was assayed by release of either 7-amino-4-trifluoromethyl-coumarin (AFC) or p-nitroanilide (pNA) from benzylyoxycarbonyl-DEVD (SEQ ID NO: 2) or benzylyoxycarbonyl-YVAD (SEQ ID NO: 3) synthetic peptides using a Molecular Devices Spectromax 340 for AFC labeled peptides or Perkin/Elmer LS50B for pNA labeled peptides (see Example II; see, also, Zhou et al., supra, 1997). Cytosolic extracts from 293 cells or Jurkat T cells were used directly (negative control) or were treated with 1 μM cytochrome c and 1 mM dATP or with cytochrome c, dATP and 0.2 μM GST-XIAP. Additional control reactions were performed by substituting 2 μM GST-Bcl-2, GST-Bax, GST-NM23 or GST-CD40 cytosolic domain, or 5 μM His6-S5a protein for GST-XIAP. DEVD-pNA hydrolysis was measured at various times and multiple experiments were performed using several different GST-XIAP preparations.

[3] = tested on: DEVD-pNA hydrolysis activity in Jurkat T cell cytosolic extracts; test: Cytochrome c/dATP-induced caspase activation (DEVD-pNA hydrolysis) in Jurkat T cell cytosolic extracts; format: biochemical; conditions: for DEVD-pNA hydrolysis, ΔA405 after 15 min: untreated ≈0.02; for DEVD-pNA hydrolysis, ΔA405 after 20 min: untreated ≈0.025
Description: as §1, §2

caspase-3 [4] = target: T1, caspase-3; test: Inhibition of purified recombinant caspase-3, DEVD substrate hydrolysis and progress curves; format: biochemical; conditions: DEVD-pNA hydrolysis
Description: Purified recombinant caspase-1, caspase-3, caspase-6, caspase-7 or caspase-8 were incubated with DEVD-pNA, either alone or with a 10-fold to 50-fold molar excess of GST-XIAP ([…]) and substrate hydrolysis was measured. Purified active caspase concentrations ranged from 0.1 nM to 10 nM. XIAP concentration ranged from 0.1 nM to 500 nM. Assays were performed in caspase buffer (50 mM Tris, pH 7.4, 100 mM NaCl, 10% sucrose, 5–10 mM DTT, 1 mM EDTA and 0.1% CHAPS).
Equilibria were determined from progress curves when substrate hydrolysis reached a steady-state; slopes were calculated by curve fit analysis using the cricket graph program. Experiments were performed using purified recombinant caspase-3, caspase-6, or caspase-7. DEVD-AFC hydrolysis was measured using 0.1 nM caspase and a range of concentrations (0.2 to 12 μM) of recombinant XIAP (rXIAP). […] Average ratio velocities (vi/vo, where “vi” indicates presence of GST-XIAP and “vo” indicates absence of GST-XIAP) were determined.
Caspase activity was determined essentially as described in Example II, using the benzylyoxycarbonyl-DEVD-AFC (SEQ ID NO: 2) substrate and was assayed at 37° C. using the Perkin-Elmer LS50B fluorometric plate reader in the kinetic mode with excitation and emission wavelengths of 400 nm and 505 nm, respectively. […] Reactions were performed in caspase buffer (50 mM Hepes, 100 mM NaCl, 1 mM EDTA, 0.1% CHAPS, 10% sucrose, 5 mM DTT). The inhibition constant, Ki, was calculated as described (Zhou et al., supra, 1997). Immunoblot analysis was performed as described in Example I.B.3.

caspase-7 [5] = target: T2, caspase-7; test: Inhibition of purified recombinant caspase-7, DEVD substrate hydrolysis and progress curves; format: biochemical; conditions: DEVD-pNA hydrolysis
Description: Purified recombinant caspase-1, caspase-3, caspase-6, caspase-7 or caspase-8 were incubated with DEVD-pNA, either alone or with a 10-fold to 50-fold molar excess of GST-XIAP (20 μM) and substrate hydrolysis was measured. Purified active caspase concentrations ranged from 0.1 nM to 10 nM. XIAP concentration ranged from 0.1 nM to 500 nM. Assays were performed in caspase buffer (50 mM Tris, pH 7.4, 100 mM NaCl, 10% sucrose, 5–10 mM DTT, 1 mM EDTA and 0.1% CHAPS).

caspase-3 [6] = target: T1, caspase-3; test: GST pull-down binding to caspase-3; conditions: glutathione-Sepharose beads, immunoblot
Description: (§3) Following incubation at 4° C. for 60 min, the beads were removed by centrifugation and washed twice with 100 vol 50 mM Tris (pH 7.5), 150 mM KCl, 2 mM DTT and 0.025% Triton-X100, then subjected to SDS-PAGE and immunoblot assay (see Example I.B.3).

caspase-7 [7] = target: T2, caspase-7; test: GST pull-down binding to caspase-7; conditions: glutathione-Sepharose beads, immunoblot
Description: as §3

caspase-6 = target: T3, caspase-6; test: GST pull-down binding to caspase-6; conditions: glutathione-Sepharose beads, immunoblot

Molecule	apoptotic cells (PI staining) in Bax expressing cells (293T cells)	apoptotic nuclei [1]	DEVD-pNA hydrolysis, ΔA405 after 15 min [2]	DEVD-pNA hydrolysis, ΔA405 after 15 min [3]	DEVD-pNA hydrolysis, ΔA405 after 20 min [3]	inhibition of caspase-3 in vitro (in words) (caspase-3 [4])	inhibition of caspase-7 in vitro (in words) (caspase-7 [5])	binding of caspase-3 (in words) (caspase-3 [6])	binding of caspase-7 (in words) (caspase-7 [7])	binding of caspase-6 (in words) (caspase-6)
CC(C)[C@H](NC(=O)OCc1ccccc1)C(=O)N[C@@H](C)C(=O)N[C@@H](CC(=O)O)C(=O)CF [zVAD-fmk, N-benzyloxycarbonyl-Val-Ala-Asp fluoromethylketone, reference compound] (Cbz-Val-Ala-Asp-CH2F)	about 5%	–	–	–	–	–	–	–	–	–
GST-Bcl-2: recombinant control protein, GST fusion of Bcl-2 [reference compound]	–	greater than 95%	≈ 0.1	≈ 0.09	≈ 0.1	–	–	–	–	–
GST-CD40 cytosolic domain: recombinant control protein, GST fusion of CD40 cytosolic domain (protein, not fully specified; also: GST fusion partner not in chain) KKVAKKPTNKAPHPKQEPQEINFPDDLPGSNTAAPVQETLHGCQPVTQEDGKESRISVQERQ	–	–	≈ 0.1	≈ 0.09	≈ 0.1	had no effect	had no effect	No caspase binding was observed; also recorded: did not bind	No caspase binding was observed; also recorded: did not bind	No caspase binding was observed
